Data from patent US20220072097A1, “PEPTIDES AND METHODS FOR TREATING NEURODEGENERATIVE DISORDERS” (OHIO STATE INNOVATION FOUNDATION, priority 2016, published 2022).

B1: … (protein)
chain: AEESDNVDSADAEEDDSDVWWGGADTDYADGSEDKVVEVAEEEEVAEVEEEEADDDEDDEDGDEVEEEAEEPYEEATERTTSIATTTTTTTESVEEVVR
notes: recombinant human APP fragment, the region between E1 and E2 domains
B2: Full PTPσ extracellular domain: full extracellular domain of PTPσ containing all 3 IG domains and 4 FN domains (protein, UniProt Q13332 30-1282, looked up)
extracellular domain: EEPPRFIKEPKDQIGVSGGVASFVCQATGDPKPRVTWNKKGKKVNSQRFETIEFDESAGAVLRIQPLRTPRDENVYECVAQNSVGEITVHAKLTVLREDQLPSGFPNIDMGPQLKVVERTRTATMLCAASGNPDPEITWFKDFLPVDPSASNGRIKQLRSETFESTPIRGALQIESSEETDQGKYECVATNSAGVRYSSPANLYVRELREVRRVAPRFSILPMSHEIMPGGNVNITCVAVGSPMPYVKWMQGAEDLTPEDDMPVGRNVLELTDVKDSANYTCVAMSSLGVIEAVAQITVKSLPKAPGTPMVTENTATSITITWDSGNPDPVSYYVIEYKSKSQDGPYQIKEDITTTRYSIGGLSPNSEYEIWVSAVNSIGQGPPSESVVTRTGEQAPASAPRNVQARMLSATTMIVQWEEPVEPNGLIRGYRVYYTMEPEHPVGNWQKHNVDDSLLTTVGSLLEDETYTVRVLAFTSVGDGPLSDPIQVKTQQGVPGQPMNLRAEARSETSITLSWSPPRQESIIKYELLFREGDHGREVGRTFDPTTSYVVEDLKPNTEYAFRLAARSPQGLGAFTPVVRQRTLQSKPSAPPQDVKCVSVRSTAILVSWRPPPPETHNGALVGYSVRYRPLGSEDPEPKEVNGIPPTTTQILLEALEKWTQYRITTVAHTEVGPGPESSPVVVRTDEDVPSAPPRKVEAEALNATAIRVLWRSPAPGRQHGQIRGYQVHYVRMEGAEARGPPRIKDVMLADAQWETDDTAEYEMVITNLQPETAYSITVAAYTMKGDGARSKPKVVVTKGAVLGRPTLSVQQTPEGSLLARWEPPAGTAEDQVLGYRLQFGREDSTPLATLEFPPSEDRYTASGVHKGATYVFRLAARSRGGLGEEAAEVLSIPEDTPRGHPQILEAAGNASAGTVLLRWLPPVPAERNGAIVKYTVAVREAGALGPARETELPAAAEPGAENALTLQGLKPDTAYDLQVRAHTRRGPGPFSPPVRYRTFLRDQVSPKNFKVKMIMKTSVLLSWEFPDNYNSPTPYKIQYNGLTLDVDGRTTKKLITHLKPHTFYNFVLTNRGSSLGGLQQTVTAWTAFNLLNGKPSVAPKPDADGFIMVYLPDGQSPVPVQSYFIVMVPLRKSRGGQFLTPLGSPEDMDLEELIQDISRLQRRSLRHSRQLEVPRPYIAARFSVLPPTFHPGDQKQYGGFDNRGLEPGHRYVLFVLAVLQKSEPTFAASPFSDPFQLDNPDPQPIVDGEEG
modifications: extracellular domain
notes: full extracellular domain of PTPσ containing all 3 IG domains and 4 FN domains

Columns and labels:
PTPσ = assay: Solid phase ELISA binding of recombinant APP domains to PTPσ; parameters: species or system human; conditions: recombinant proteins, solid phase ELISA binding assay
Experimental: (§1) FIG. 20 Ligand binding site of PTPσ IG1 domain interacts with APP. Binding of human APP fragment (SEQ ID NO:1) with various PTPσ fragments is measured by kinetic ELISA assay. APP fragment corresponds to SEQ ID NO:1, which is a region between E1 and E2 domains. PTPσ fragments used here include IG1,2 (containing IG1 and IG2 domains), ΔLysIG1,2 (containing IG1 and IG2 domains, with lysine 67, 68, 70, 71 mutated to alanine), IG1-FN1 (containing IG1, IG2, IG3 and FN1 domains), ECD (full extracellular domain of PTPσ containing all 3 IG domains and 4 FN domains). Value shown are mean±SEM, n=3 for each group. ***, p≤0.001, Student t test, comparison with the IG1,2.
(§2) Domain regions were subcloned from human APP695 (construct by Denis Selkoe and Tracy Yang labs purchased through Addgene.com) and PTPσ (constructs from Radu Aricescu lab). Recombinant APP and PTPσ proteins were tested in solid phase ELISA binding assays to define the binding regions on each partner. […] Comparing APP binding strength of difference PTPσ fragments, it appears that inclusion of the fibronectin (FN) domains of PTPσ weakens the interaction with APP, likely due to folding of PTPσ that covers up the ligand binding site in its IG1 domain^61.

[1] = molecular target: T1, human APP fragment (SEQ ID NO:1) (Homo sapiens, UniProt P05067); assay: Kinetic ELISA binding of PTPσ fragments to human APP fragment; conditions: recombinant proteins, compared with IG1,2
T1 construct: made in house
Experimental: as §1, §2

Row | Molecule | Interaction of APP region with PTPσ (PTPσ) | Binding of PTPσ fragment with APP SEQ ID NO:1 [1]
1 | B1 | high affinity | 
2 | B2 |  | nearly lost binding
